According to patent US20040228866A1, “Suppressor genes” (Ludwig Institute for Cancer Research, priority 2000, published 2004):

B1: ASPP2: full length 1128 amino acid protein, SEQ ID NO: 4 (protein, listed as Homo sapiens)
chain: MMPMFLTVYLSNNEQHFTEVPVTPETICRDVVDLCKEPGESDCHLAEVWCGSERPVADNERMFDVLQRFGSQRNEVRFFLRHERPPGRDIVSGPRSQDPSLKRNGVKVPGEYRRKENGVNSPRMDLTLAELQEMASRQQQQIEAQQQLLATKEQRLKFLKQQDQRQQQQVAEQEKLKRLKEIAENQEAKLKKVRALKGHVEQKRLSNGKLVEEIEQMNNLFQQKQRELVLAVSKVEELTRQLEMLKNGRIDSHHDNQSAVAELDRLYKELQLRNKLNQEQNAKLQQQRECLNKRNSEVAVMDKRVNELRDRLWKKKAALQQKENLPVSSDGNLPQQAASAPSRVAAVGPYIQSSTMPRMPSRPELLVKPALPDGSLVIQASEGPMKIQTLPNMRSGAASQTKGSKIHPVGPDWSPSNADLFPSQGSASVPQSTGNALDQVDDGEVPLREKEKKVRPFSMFDAVDQSNAPPSFGTLRKNQSSEDILRDAQVANKNVAKVPPPVPTKPKQINLPYFGQTNQPPSDIKPDGSSQQLSTVVPSMGTKPKPAGQQPRVLLSPSIPSVGQDQTLSPGSKQESPPAAAVRPFTPQPSKDTLLPPFRKPQTVAASSIYSMYTQQQAPGKNFQQAVQSALTKTHTRGPHFSSVYGKPVIAAAQNQQQHPENIYSNSQGKPGSPEPETEPVSSVQENHENERIPRPLSPTKLLPFLSNPYRNQSDADLEALRKKLSNAPRPLKKRSSITEPEGPNGPNIQKLLYQRTTIAAMETISVPSYPSKSASVTASSESPVEIQNPYLHVEPEKEVVSLVPESLSPEDVGNASTENSDMPAPSPGLDYEPEGVPDNSPNLQNNPEEPNPEAPHVLDVYLEEYPPYPPPPYPSGEPEGPGEDSVSMRPPEITGQVSLPPGKRTNLRKTGSERIAHGMRVKFNPLALLLDSSLEGEFDLVQRIIYEVDDPSLPNDEGITALHNAVCAGHTEIVKFLVQFGVNVNAADSDGWTPLHCAASCNNVQVCKFLVESGAAVFAMTYSDMQTAADKCEEMEEGYTQCSQFLYGVQEKMGIMNKGVIYALWDYEPQNDDELPMKEGDCMTIIHREDEDEIEWWWARLNDKEGYVPRNLLGLYPRIKPRQRSLA
B2: ASPP1: Apoptosis Stimulating Protein 1, protein of SEQ ID NO: 2, expressed from a transfected plasmid (protein, listed as Homo sapiens)
chain: MMPMILTVFLSNNEQILTEVPITPETTCRDVVEFCKEPGEGSCHLAEVWRGNERPIPFDHMMYEHLQIWGPRREEVKFFLRHEDSPTENSEQGGRQTQEQRTQRNVINVPGDKRTEYGVGNPRVELTLSELQDMAARQQQQIENQQQMLVAKEQRLHFLKQQERRQQQSISENEKLQKLKERVEAQENKLKKIRAMRGQVDYSKIMNGNLSAEIERFSAMFQEKKQEVQTAILRVDQLSQQLEDLKKGKLNGFQSYNGKLTGPAAVELKRLYQELQIRNQLNQEQNSKLQQQKELLNKRNMEVAMMDKRISELRERLYGKKIQLNRVNGTSSPQSPLSTSGRVAAVGPYIQVPSAGSFPVLGDPIKPQSLSIASNAAHGRSKSANDGNWPTLKQNSSSSVKPVQVAGADWKDPSVEGSVKQGTVSSQPVPFSALGPTEKPGIEIGKVPPPIPGVGKQLPPSYGTYPSPTPLGPGSTSSLERRKEGSLPRPSAGLPSRQRPTLLPATGSTPQPGSSQQIQQRISVPPSPTYPPAGPPAFPAGDSKPELPLTVAIRPFLADKGSRPQSPRKGPQTVNSSSIYSMYLQQATPPKNYQPAAHSALNKSVKAVYGKPVLPSGSTSPSPLPFLHGSLSTGTPQPQPPSESTEKEPEQDGPAAPADGSTVESLPRPLSPTKLTPIVHSPLRYQSDADLEALRRKLANAPRPLKKRSSITEPEGPGGPNIQKLLYQRFNTLAGGMEGTPFYQPSPSQDFMGTLADVDNGNTNANGNLEELPPAQPTAPLPAEPAPSSDANDNELPSPEPEELICPQTTHQTAEPAEDNNNNVATVPTTEQIPSPVAEAPSPGEEQVPPAPLPPASHPPATSTNKRTNLKKPNSERTGHGLRVRFNPLALLLDASLEGEFDLVQRIIYEVEDPSKPNDEGITPLHNAVCAGHHHIVKFLLDFGVNVNAADSDGWTPLHCAASCNSVHLCKQLVESGAAIFASTISDIETAADKCEEMEEGYIQCSQFLYGVQEKLGVMNKGVAYALWDYEAQNSDELSFHEGDALTILRRKDESETEWWWARLGDREGYVPKNLLGLYPRIKPRQRTLA

How the values were obtained:
E2F1 = target: T1, E2F1 (Homo sapiens, UniProt Q01094); assay: Transient reporter assay of E2F1 transactivation function; type: cell-based; settings: co-expression with E2F1, FIGS. 2C and 2D
T1 construct: expressed in transfected cells

p63γ = target: T2, p63γ (Homo sapiens, UniProt Q9H3D4); assay: Transient luciferase reporter assay of p63γ transactivation function; type: cell-based; settings: FIG. 14C
T2 construct: expressed in transfected cells; host or cells: Saos-2
T2 sequence (Q9H3D4 1-487 isoform Q9H3D4-5): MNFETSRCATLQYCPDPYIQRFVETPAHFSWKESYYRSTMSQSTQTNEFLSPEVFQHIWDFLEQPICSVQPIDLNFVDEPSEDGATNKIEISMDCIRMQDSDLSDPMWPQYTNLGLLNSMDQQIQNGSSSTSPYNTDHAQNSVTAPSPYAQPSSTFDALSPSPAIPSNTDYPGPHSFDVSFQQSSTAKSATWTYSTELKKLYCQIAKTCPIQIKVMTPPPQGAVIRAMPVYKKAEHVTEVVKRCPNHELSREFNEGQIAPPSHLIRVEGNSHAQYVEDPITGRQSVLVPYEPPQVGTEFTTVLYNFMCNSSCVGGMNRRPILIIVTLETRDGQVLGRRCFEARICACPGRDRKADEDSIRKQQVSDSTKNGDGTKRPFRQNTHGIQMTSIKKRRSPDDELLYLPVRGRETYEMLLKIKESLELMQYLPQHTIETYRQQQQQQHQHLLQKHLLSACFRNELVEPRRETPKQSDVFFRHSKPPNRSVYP
Procedure: (§1) To determine the amount of protein expression, Saos-2 cells (5×10^5) were plated 24 hours prior to transfection in 6 cm dishes. […] To determine the amount of gene activation, after transfection, the cells were lysed in Reporter Lysis Buffer 16-24 hours post-wash and assayed using the Luciferase Assay kit (Promega, Wis.). The fold activation of a particular reporter was determined by the activity of the transfected plasmid above the activity of vector alone.
(§2) The expression level of transfected proteins was detected using 40 μg of the respective lysates using the antibodies V5, DX.5410, DO1, 4A4 and p73. […] Results were derived from at least three independent experiments.

p53 [1] = target: T3, p53 (Homo sapiens, UniProt P04637); assay: Transient luciferase reporter assay of p53 transactivation function in Saos-2 cells; type: cell-based; settings: for stimulation of the promoter activity of mdm2 and cyclin G: co-expression with p53; for promoter activity of PIG-3: transient transfection reporter assay
T3 construct: expressed in transfected cells
Procedure: (§3) The amount of luciferase expression was determined as previously described in Samuels-Lev et al. (Mol. Cell 8:781-94, 2001, herein incorporated by reference).
(§4) The amount of transactivation function was determined as described in Example 4.
as §1, §2

p53 [2] = target: T4, p53 (Homo sapiens, UniProt P04637, R181C); assay: as above; type: cell-based; settings: Bax-luc, FIG. 6B
T4 construct: expressed in transfected cells
Procedure: as §3, §4, §1, §2

U2OS and MCF7 cells = assay: Apoptosis by FACS in U2OS and MCF7 cells expressing wild-type p53, with or without cisplatin; type: cell-based, human; settings: no cisplatin
Procedure: The transfected cells were gated, and the apoptotic cells identified by FACS as described in Example 6.
Before exposure to cisplatin (5 and 3 μg/ml respectively), U2OS and MCF7 cells were transfected with plasmids encoding HPV16 E6, iASPP, or 53BP2. Thirty hours later, cells were harvested and analysed as above.
Fragments from the 5′ ends of ASPP1, ASPP2 and iASPP cDNA were cloned into a mammalian expression vector in an antisense orientation and their ability to inhibit the protein synthesis determined in vitro. The antisense nucleic acid molecules were amplified by PCR on the respective plasmid clones using primers spanning the following nucleotide regions (relative to the initial ATG): −74 to 923; −253 to 839 and −37 to 536 for ASPP1, ASPP2 and iASPP respectively. The amplified segments were purified with the QIAquick PCR purification kit (QIAGEN) and ligated in the pcDNA3.1/V5-His TOPO vector (Invitrogen) according to the manufacturer's instructions.
U2OS and MCF-7 cells were transfected with the various expression plasmids prior to the treatment with cisplatin and analyzed using FACS as described above.
To determine the anti-apoptotic role of iASPP, both U2OS and MCF-7 cells were transfected with antisense iASPP and cells analyzed as described above. […] A small increase in apoptotic cells was consistently detected (FIG. 7D).

T1 sequence (Q01094 whole entry, species assumed): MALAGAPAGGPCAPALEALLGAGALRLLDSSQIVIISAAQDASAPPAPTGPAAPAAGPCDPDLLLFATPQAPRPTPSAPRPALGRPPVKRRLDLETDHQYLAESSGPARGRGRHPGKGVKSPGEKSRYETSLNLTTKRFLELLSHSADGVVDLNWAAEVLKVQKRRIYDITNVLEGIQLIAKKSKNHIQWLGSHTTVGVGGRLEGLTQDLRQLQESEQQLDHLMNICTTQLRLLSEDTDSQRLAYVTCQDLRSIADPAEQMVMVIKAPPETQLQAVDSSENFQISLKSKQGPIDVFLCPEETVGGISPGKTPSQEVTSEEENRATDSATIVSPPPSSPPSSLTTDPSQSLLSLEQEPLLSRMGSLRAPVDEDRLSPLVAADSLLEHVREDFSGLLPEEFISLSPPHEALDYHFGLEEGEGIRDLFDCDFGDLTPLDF

Molecule	transactivation function of E2F1 on cyclin A, b-myb and synthetic promoter 3×wt (E2F1)	transactivation function of p63γ on the mdm2 promoter (p63γ)	transactivation function of p53 on the mdm2 promoter (p53 [1]; FIG. 8C, Ikb even in the presence of ASPP2)	stimulation of the promoter activity of mdm2 and cyclin G (p53 [1])	stimulation of the transactivation function of p53 on the Bax promoter (p53 [1]; co-expression with p53, FIG. 8B)	promoter activity of PIG-3 (p53 [1])	stimulation of the transactivation function of p53 (p53 [1]; versions of ASPP2 co-expressed with p53, FIG. 3)	transactivation function of mutant p53 181C on the Bax gene promoter (p53 [2])	apoptosis on expression in cells with endogenous wild-type p53 (U2OS and MCF7 cells)	stimulation of the transactivation function of p53 on the Bax promoter (p53 [1]; Example 16, FIGS. 14A and 14B)
B1	failed to stimulate	failed to stimulate	very little effect	very modest stimulation	about 8 fold	specifically stimulated	about 7 fold	unable to stimulate	induced apoptosis	
B2	failed to stimulate	failed to stimulate		very modest stimulation		specifically stimulated		unable to stimulate	induced apoptosis	around 6 fold
